According to patent publication US20260242478A1 (published 2026):

Legend:
[1] = biological target: T1, Peptide-132; assay: BLI (Octet), biotinylated peptide on sensor, Fab in solution
T1 peptide: YCEGHLPEYRNKCL

[2] = biological target: T2, Peptide-92; assay: binding ELISA, biotinylated peptide on neutravidin plate, Fab titrated
T2 peptide: SCAAGASYAWPYCL

[3] = biological target: T3, Peptide-137; assay: as above
T3 peptide: TCSAGATWPWPICL

[4] = biological target: T4, Peptide-138; assay: as above
T4 peptide: LCAAGASWPWPVCL

[5] = biological target: T5, Peptide-139; assay: as above
T5 peptide: TCSAGASYPWPLCL

[6] = biological target: T6, Peptide-140; assay: as above
T6 peptide: TCAAGAAWPWPQCL

[7] = biological target: T7, Peptide-141; assay: as above
T7 peptide: TCSAGATYTWPKCF

[8] = biological target: T8, Peptide-142; assay: as above
T8 peptide: TCAAGATWSWPACF

[9] = biological target: T9, Peptide-143; assay: as above
T9 peptide: TCAAGAAWGWPLCF

[10] = biological target: T10, Peptide-144; assay: as above
T10 peptide: LCAAGATYPWPLCL

[11] = biological target: T11, Peptide-145; assay: as above
T11 peptide: TCSAGAAYPWPLCL

[12] = biological target: T12, Peptide-146; assay: as above
T12 peptide: TCSAGAAYSWPACF

[13] = biological target: T13, Peptide-147; assay: as above
T13 peptide: LCAAGATYPWPTCL

[14] = biological target: T14, Peptide-148; assay: as above
T14 peptide: SCSAGAHYPWPQCF

[15] = biological target: T15, Peptide-149; assay: as above
T15 peptide: TCSAGATYEWPRCL

[16] = biological target: T16, Peptide-150; assay: as above
T16 peptide: TCSAGAHYPWPICL

[17] = biological target: T17, Peptide-151; assay: as above
T17 peptide: SCSAGAAYYWPWCL

[18] = biological target: T18, Peptide-152; assay: as above
T18 peptide: TCSAGATWAWPLCF

[19] = biological target: T19, Peptide-153; assay: as above
T19 peptide: TCAAGATYLWPTCL

[20] = biological target: T20, Peptide-154; assay: as above
T20 peptide: TCAAGAHYPWPACL

[21] = biological target: T21, Peptide-87; assay: as above
T21 peptide: YCAGHAWQYINKCL

[22] = biological target: T22, Peptide-117; assay: as above
T22 peptide: YCEGHSPEYILKCL

[23] = biological target: T23, Peptide-118; assay: as above
T23 peptide: YCEGHRPEYILKCL

[24] = biological target: T24, Peptide-119; assay: as above
T24 peptide: YCEGHEGIYFWKCL

[25] = biological target: T25, Peptide-120; assay: as above
T25 peptide: YCEGHLPEYIEKCL

[26] = biological target: T26, Peptide-121; assay: as above
T26 peptide: YCEGHAPEYIAKCL

[27] = biological target: T27, Peptide-122; assay: as above
T27 peptide: YCEGHAPEYIRKCL

[28] = biological target: T28, Peptide-123; assay: as above
T28 peptide: YCEGHAPEYIWKCL

[29] = biological target: T29, Peptide-124; assay: as above
T29 peptide: YCEGHSQENIWKCL

[30] = biological target: T30, Peptide-125; assay: as above
T30 peptide: YCEGHLPEYLGKCL

[31] = biological target: T31, Peptide-126; assay: as above
T31 peptide: YCEGHLPEYREKCL

[32] = biological target: T32, Peptide-127; assay: as above
T32 peptide: YCEGHLPEYLAKCL

[33] = biological target: T33, Peptide-128; assay: as above
T33 peptide: YCEGHSQEYLWKCL

[34] = biological target: T34, Peptide-129; assay: as above
T34 peptide: YCEGHSSEYIQKCL

[35] = biological target: T1, Peptide-132; assay: as above
[36] = biological target: T35, Peptide-133; assay: as above
T35 peptide: YCEGHLPEYLEKCV

[37] = biological target: T36, Peptide-134; assay: as above
T36 peptide: YCEGHLPEYIQKCL

[38] = biological target: T37, Peptide-135; assay: as above
T37 peptide: YCEGHLPEYIWKCL

[39] = biological target: T38, Peptide-136; assay: as above
T38 peptide: YCEGHAPEYIGKCL

Off rate t½ [1]: 48 s
EC50 [2]: 18.9 nM
EC50 [3]: 2.1 nM
EC50 [4]: 13.1 nM
EC50 [5]: 5.3 nM
EC50 [6]: 2.6 nM
EC50 [7]: 15.7 nM
EC50 [8]: 4.5 nM
EC50 [9]: 5.6 nM
EC50 [10]: 5.6 nM
EC50 [11]: 4.4 nM
EC50 [12]: 24.3 nM
EC50 [13]: 25.8 nM
EC50 [14]: 19 nM
EC50 [15]: 12.8 nM
EC50 [16]: 10.6 nM
EC50 [17]: 112 nM
EC50 [18]: 15.6 nM
EC50 [19]: 20.5 nM
EC50 [20]: 4.2 nM
EC50 [21]: 30.6 nM
EC50 [22]: 11 nM
EC50 [23]: 65.8 nM
EC50 [24]: 128 nM
EC50 [25]: 3.1 nM
EC50 [26]: 7.1 nM
EC50 [27]: 7.8 nM
EC50 [28]: 8.1 nM
EC50 [29]: 28.1 nM
EC50 [30]: 12.1 nM
EC50 [31]: 3.4 nM
EC50 [32]: 1.7 nM
EC50 [33]: 59.4 nM
EC50 [34]: 30.5 nM
EC50 [35]: 3.2 nM
EC50 [36]: 32.5 nM
EC50 [37]: 1.3 nM
EC50 [38]: 2.1 nM
EC50 [39]: 44.9 nM
B1: anti-CD28 Fab (Fab, V domains shown)
VH: QVQLVQSGAEVKKPGASVKVSCKASGYTFTSYYIHWVRQAPGQGLEWIGSIYPGNVNTNYNEKFKDRATLTVDTSISTAYMELSRLRSDDTAVYFCTRSHYGLDWNFDVWGQGTTVTVSS
VL: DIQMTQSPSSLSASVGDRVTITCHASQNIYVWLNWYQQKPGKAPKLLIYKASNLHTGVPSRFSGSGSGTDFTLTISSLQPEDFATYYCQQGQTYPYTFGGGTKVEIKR
